The values below come from US20240132578A1.

Holding throughout (assay): cell-based or functional assay
The target in experiment [1] is HIV-1 JR-CSF Env D325A (HIV-1 isolate JR-CSF) (UniProt P20871).
In experiment [2] the target is HIV-1 JR-CSF Env H330A (HIV-1 isolate JR-CSF) (UniProt P20871).
Experiment [3] deals with HIV-1 JR-CSF Env I309A (HIV-1 (isolate JR-CSF, clade B)) (UniProt P20871).
Experiment [4] addresses HIV-1 JR-CSF Env K305A (HIV-1 (isolate JR-CSF, clade B)) (UniProt P20871).
For experiment [5], the target named is HIV-1 JR-CSF Env N295A (HIV-1 (isolate JR-CSF, clade B)) (UniProt P20871).
Experiment [6] addresses HIV-1 JR-CSF Env T202A (HIV-1 (isolate JR-CSF)) (UniProt P20871).
Experiment [7] concerns the target HIV-1 JR-CSF Env T320A (HIV-1 (isolate JR-CSF, clade B)) (UniProt P20871).
Experiment [8] deals with HIV-1 envelope glycoprotein (Env) of isolate 92BR020, on pseudovirus (HIV-1).
The target of experiment [9] is HIV-1 envelope glycoprotein (Env) of isolate 92WR026, subtype A (HIV-1).
The target of experiment [10] is HIV-1 envelope glycoprotein (Env) of isolate MG RM-A-002, subtype A (HIV-1).
For experiment [11], the target named is HIV-1 envelope glycoprotein (Env) of isolate MGRM-Chronic-B-010, on pseudovirus (HIV-1).

For the substance 5145_B14 (PGT-127) (antibody), the Fold IC50 increase relative to wild-type in [1] is 0.93 fold; in experiment [2], 0.5 fold; in [3], 6 fold; in experiment [4] it was 2.6 fold; in experiment [5] it was 2.3 fold; in [6] it was 1.8 fold. This substance also came in with a Fold IC50 increase relative to wild-type in [7] of 1.8 fold. In addition, the IC50, pseudovirus neutralization in experiment [8] stood at 0.059 µg/mL; in experiment [9], 0.024 µg/mL; in experiment [10], 9.42 µg/mL; in experiment [11], 0.019 µg/mL.
